The record followed here is US20090232837A1.

The assay has as its target RTQKEASI peptide (mammalian). As to the kind of experiment: ELISA, peptide adsorbed to wells (10 mg/ml). (In general: An ELISA detects its analyte on a solid surface through an enzyme-linked reagent.)

Take Negative control (ELISA of Table 3): the OD was determined as 0.141 OD.
